Results from the Immune Epitope Database (IEDB).

Columns and labels:
HLA-B*40:01 = assay: IEDB peptide-MHC binding, purified MHC/direct/fluorescence; filed as Kd, often an IC50 or EC50 that approximates it; ≥ and ≤ were set here for values at or beyond the usual limits of such assays; settings: source organism: SARS-CoV1
HLA-A*01:01 = assay: IEDB peptide-MHC binding, purified MHC/competitive/radioactivity; filed as Kd, often an IC50 or EC50 that approximates it; ≥ and ≤ were set here for values at or beyond the usual limits of such assays
HLA-A*23:01 = assay: as above
HLA-A*24:02 = assay: as above
HLA-A*26:01 = assay: as above
HLA-A*29:02 = assay: as above
HLA-A*30:02 = assay: as above
HLA-B*44:02 = assay: as above
HLA-A*32:01 = assay: as above
HLA-B*44:03 = assay: as above
HLA-A*03:01 = assay: as above
HLA-A*11:01 [1] = assay: as above
HLA-A*31:01 = assay: as above
HLA-A*33:01 = assay: as above
HLA-A*68:01 = assay: as above
HLA-B*57:01 = assay: IEDB peptide-MHC binding, purified MHC/direct/fluorescence; filed as Kd, often an IC50 or EC50 that approximates it; ≥ and ≤ were set here for values at or beyond the usual limits of such assays; settings: source organism: Bacillus mycoides
HLA-B*58:01 = assay: as above; settings: source organism: Bacillus mycoides
HLA-A*11:01 [2] = assay: as above; settings: source organism: SARS-CoV1
HLA-B*15:01 = assay: as above; settings: source organism: SARS-CoV1
[3] = source organism: SARS coronavirus Tor2
[4] = source organism: Dengue virus 4 Philippines/H241/1956
[5] = source organism: Vaccinia virus WR
[6] = source organism: Dengue virus 3 Martinique/1243/1999
[7] = source organism: Dengue virus 1 Brazil/97-11/1997
[8] = source organism: Mammarenavirus machupoense
[9] = source organism: Mammarenavirus lassaense
[10] = source organism: Mammarenavirus whitewaterense
[11] = source organism: Dengue virus 1 Singapore/S275/1990
[12] = source organism: Triticum aestivum

AEDMLNPNY gave a Kd (HLA-B*40:01) of 4390 nM, a Kd (HLA-A*01:01; [3]) of no less than 87700 nM and a Kd (HLA-A*23:01; [3]) of no less than 77800 nM. It also gave a Kd (HLA-A*24:02; [3]) of no less than 77600 nM, a Kd (HLA-A*26:01; [3]) of no less than 86900 nM and a Kd (HLA-A*29:02; [3]) of 3800 nM. It also gave a Kd (HLA-A*30:02; [3]) of 12900 nM.
Work on AETWMSSEG yielded a Kd (HLA-B*44:02; [4]) of 425 nM.
AFNCTFEYI showed a Kd (HLA-A*01:01; [3]) of 1400 nM, a Kd (HLA-A*23:01; [3]) of 9360 nM and a Kd (HLA-A*24:02; [3]) of no less than 70300 nM. For the same sequence, the Kd (HLA-A*26:01; [3]) was 86.1 nM, the Kd (HLA-A*29:02; [3]) was 322 nM and the Kd (HLA-A*30:02; [3]) was 1400 nM.
AIMFFPRTI was tested, and the Kd (HLA-A*32:01; [5]) was 1.12 nM.
Sequence AMFTAALNI has a Kd (HLA-A*32:01; [5]) of 123 nM.
In the case of ASISSVLTI, the Kd (HLA-A*32:01; [5]) is reported as 13.3 nM.
ASLVMLLVHY gave a Kd (HLA-A*01:01; [4]) of 1830 nM, a Kd (HLA-A*30:02; [4]) of 1900 nM and a Kd (HLA-B*44:03; [4]) of no less than 70100 nM.
With AWMVHRQWFF the Kd (HLA-A*23:01; [6]) was 9.48 nM, the Kd (HLA-A*24:02; [6]) was 4.7 nM and the Kd (HLA-B*44:02; [6]) was 2210 nM.
Work on AYLRKHFSM yielded a Kd (HLA-A*01:01; [3]) of no less than 78100 nM, a Kd (HLA-A*23:01; [3]) of no less than 24400 nM and a Kd (HLA-A*24:02; [3]) of no less than 83300 nM. It also gave a Kd (HLA-A*26:01; [3]) of no less than 77900 nM, a Kd (HLA-A*29:02; [3]) of 6290 nM and a Kd (HLA-A*30:02; [3]) of no less than 75000 nM.
Sequence DLIKKSDAKR has a Kd (HLA-A*03:01; [5]) of 6370 nM, a Kd (HLA-A*11:01 [1]; [5]) of 12500 nM and a Kd (HLA-A*29:02; [5]) of 28.7 nM. For the same sequence, the Kd (HLA-A*31:01; [5]) was 3.96 nM, the Kd (HLA-A*33:01; [5]) was 8.97 nM and the Kd (HLA-A*68:01; [5]) was 13.9 nM.
With EEESEGAIW the Kd (HLA-B*44:02; [6]) was 33.7 nM and the Kd (HLA-B*44:03; [6]) was 67.7 nM.
For EENMDVEIW, the Kd (HLA-B*44:02; [7]) was 82.8 nM and the Kd (HLA-B*44:03; [7]) was 123 nM.
EMICFHEFL gave a Kd (HLA-A*23:01; [8]) of 6960 nM, a Kd (HLA-A*24:02; [8]) of no less than 40900 nM and a Kd (HLA-A*29:02; [8]) of 11300 nM.
Work on ESDSKPQKV yielded a Kd (HLA-A*01:01; [9]) of 180 nM, a Kd (HLA-A*23:01; [9]) of no less than 77700 nM and a Kd (HLA-A*24:02; [9]) of no less than 77500 nM. The Kd (HLA-A*26:01; [9]) was no less than 77900 nM, the Kd (HLA-A*29:02; [9]) was no less than 78900 nM and the Kd (HLA-A*30:02; [9]) was no less than 76900 nM.
With FAGKTVWFVP the Kd (HLA-A*32:01; [6]) was no less than 26600 nM.
FTILCLVPAY gave a Kd (HLA-A*01:01; [3]) of 456 nM, a Kd (HLA-A*23:01; [3]) of no less than 70000 nM and a Kd (HLA-A*24:02; [3]) of no less than 70300 nM. The Kd (HLA-A*26:01; [3]) was 10.6 nM, the Kd (HLA-A*29:02; [3]) was 15.5 nM and the Kd (HLA-A*30:02; [3]) was 329 nM.
For FYVSSIFLHL, the Kd (HLA-A*23:01; [10]) was 8.55 nM, the Kd (HLA-A*24:02; [10]) was 114 nM and the Kd (HLA-A*29:02; [10]) was 10.9 nM.
Sequence GEVGAIALDF has a Kd (HLA-B*44:02; [7]) of 21.5 nM and a Kd (HLA-B*44:03; [7]) of 23.5 nM.
For GPDDQIGYY, the Kd (HLA-A*01:01; [3]) was no less than 79400 nM, the Kd (HLA-A*23:01; [3]) was no less than 77800 nM and the Kd (HLA-A*24:02; [3]) was no less than 77600 nM. The Kd (HLA-A*26:01; [3]) was 11000 nM, the Kd (HLA-A*29:02; [3]) was 6490 nM and the Kd (HLA-A*30:02; [3]) was 2450 nM.
In the case of GTHYQNHGF, the Kd (HLA-A*32:01; [5]) is reported as 6.02 nM.
GYKNVRITF gave a Kd (HLA-A*01:01; [3]) of no less than 78100 nM, a Kd (HLA-A*23:01; [3]) of 11000 nM and a Kd (HLA-A*24:02; [3]) of 6990 nM. For the same sequence, the Kd (HLA-A*26:01; [3]) was no less than 54100 nM, the Kd (HLA-A*29:02; [3]) was 3700 nM and the Kd (HLA-A*30:02; [3]) was no less than 23100 nM.
In the case of HEHKSTWHY, the Kd (HLA-B*44:02; [11]) is reported as 19.8 nM and the Kd (HLA-B*44:03; [11]) is reported as 9.11 nM.
With HWVEITALI the Kd (HLA-A*23:01; [4]) was 100 nM and the Kd (HLA-A*24:02; [4]) was 317 nM.
In the case of ITFQSILGY, the Kd (HLA-B*57:01) is reported as 70.7 nM and the Kd (HLA-B*58:01) is reported as 57.3 nM.
Work on KAADVTWEEE yielded a Kd (HLA-A*32:01; source organism: Dengue virus 3 Singapore/8120/1995) of no less than 33100 nM.
In the case of KEEESEGAIW, the Kd (HLA-B*44:02; [6]) is reported as 58.4 nM and the Kd (HLA-B*44:03; [6]) is reported as 90.9 nM.
For KMFESTYRG, the Kd (HLA-A*32:01; source organism: Dengue virus 4 Dominica/814669/1981) was 907 nM.
KSLKKVYTF was tested, and the Kd (HLA-A*32:01; [5]) was 0.485 nM.
With KSQVLQQSTY the Kd (HLA-A*01:01; [12]) was 678 nM, the Kd (HLA-A*03:01; [12]) was no less than 21700 nM and the Kd (HLA-A*11:01 [1]; [12]) was no less than 22100 nM. The Kd (HLA-A*23:01; [12]) was no less than 39000 nM, the Kd (HLA-A*24:02; [12]) was no less than 70300 nM and the Kd (HLA-A*26:01; [12]) was no less than 102000 nM. The Kd (HLA-A*29:02; [12]) was 12000 nM, the Kd (HLA-A*30:02; [12]) was 260 nM and the Kd (HLA-A*31:01; [12]) was no less than 47200 nM. For the same sequence, the Kd (HLA-A*33:01; [12]) was no less than 70000 nM and the Kd (HLA-A*68:01; [12]) was no less than 70200 nM.
Sequence LLMYNLLTI has a Kd (HLA-A*32:01; source organism: Vaccinia virus Copenhagen) of 71.7 nM.
Sequence LQSLENVAY has a Kd (HLA-A*11:01 [2]) of no less than 44700 nM, a Kd (HLA-B*15:01) of 161 nM and a Kd (HLA-A*01:01; [3]) of no less than 42300 nM. It also gave a Kd (HLA-A*23:01; [3]) of no less than 77800 nM, a Kd (HLA-A*24:02; [3]) of no less than 77600 nM and a Kd (HLA-A*26:01; [3]) of no less than 81500 nM. The Kd (HLA-A*29:02; [3]) was 6670 nM and the Kd (HLA-A*30:02; [3]) was 617 nM.
